Measured values from paper PMC7705443 (Cell Research, 2020).

Columns and labels:
[1] = biological target: SARS-CoV RBD (residues 306-527), C-terminal his-tag (SARS-CoV (GenBank NC_004718.3, Tor2), UniProt P59594); test: SPR; conditions: both partners purified
[2] = biological target: SARS-CoV-2 RBD (residues 319-541), C-terminal his-tag (SARS-CoV-2, Wuhan-Hu-1 (MN908947.3), UniProt P0DTC2); test: SPR; conditions: both partners purified

B1: P17 antibody (full-length IgG1) (antibody, V domains shown)
VH: QQLVESGGGVVQPGRSLRLSCAASGFTFSSYAMHWVRQAPGKGLEWVAVISYDGSNKYYADSVKGRFTISRDNSKNTLYLQMNSLRAEDTAVYYCARHATLMNNKDIWGQGTLVTVSS
VL: not shown
notes: also called NAb P17
**Q.** Which results are given for B1?
**A.** binding result [1]: no binding; Kd [2]: 0.096 nM
